Assay [1] concerns the target wild-type tau repeat domain (WT tauRD) (human). The assay can be described thus: MST; Cy5-labelled wild-type or mutant tau/tauRD titrated with a serial two-fold dilution of DnaJC7 or single DnaJC7 domains; Monolith NT.115; technical triplicates; fit in PALMIST with a 1:1 binding model.
The target of assay [2] is P301L tau repeat domain (P301L tauRD) (human). The assay is described as above.

B1: DnaJC7 (full-length, wild type, recombinant) (natural protein)
chain: MAAAAECDVVMAATEPELLDDQEAKREAETFKEQGNAYYAKKDYNEAYNYYTKAIDMCPKNASYYGNRAATLMMLGRFREALGDAQQSVRLDDSFVRGHLREGKCHLSLGNAMAACRSFQRALELDHKNAQAQQEFKNANAVMEYEKIAETDFEKRDFRKVVFCMDRALEFAPACHRFKILKAECLAMLGRYPEAQSVASDILRMDSTNADALYVRGLCLYYEDCIEKAVQFFVQALRMAPDHEKACIACRNAKALKAKKEDGNKAFKEGNYKLAYELYTEALGIDPNNIKTNAKLYCNRGTVNSKLRKLDDAIEDCTNAVKLDDTYIKAYLRRAQCYMDTEQYEEAVRDYEKVYQTEKTKEHKQLLKNAQLELKKSKRKDYYKILGVDKNASEDEIKKAYRKRALMHHPDRHSGASAEVQKEEEKKFKEVGEAFTILSDPKKKTRYDSGQDLDEEGMNMGDFDPNNIFKAFFGGPGGFSFEASGPGNFFFQFG
On to B1, for which the results for the Kd in assay [1] and in assay [2] were 2.2 µM and 6.2 µM, respectively.
